Article PMC10470531, “RecJ3/4-aRNase J form a Ubl-associated nuclease complex functioning in survival against DNA damage in Haloferax volcanii” (mBio, 2023)
Values belong to the molecule of their own block, whether it stands above or below them.

Tests used:
His6-RecJ3 (H. volcanii) [1] = target: His6-RecJ3 (H. volcanii) (UniProt D4GVJ5); assay: SEC; HisTrap-bound, Strep-Tactin flow-through fractions from H. volcanii HJ07; Superdex 200 Increase 10/300 GL; 50 mM HEPES pH 7.5, 2 M NaCl, 1 mM DTT, 5 mM MnCl2, 5 mM MgCl2, 10% glycerol; fractions on reducing SDS-PAGE
[2] = target: aRNase J-StrepII (H. volcanii) (UniProt D4GW49); assay: affinity purification with mass spectrometry; tandem affinity purification (HisTrap, then Strep-Tactin) of His6-RecJ3 and aRNase J-StrepII from H. volcanii HJ02-pJAM4252 against the empty vector; 2 M NaCl buffers; LC-MS/MS of the liquid fractions and AQUA-based MS/MS (SRM with heavy peptides) for the stoichiometry
His6-RecJ3 (H. volcanii) [3] = target: His6-RecJ3 (H. volcanii) (UniProt D4GVJ5); assay: as above
[4] = target: the molecule itself; assay: SEC; aRNase J-StrepII purified by Strep-Tactin from H. volcanii HS01-pJAM1406 (ΔrecJ3); Superdex 200 Increase 10/300 GL; 50 mM HEPES pH 7.5, 2 M NaCl, 1 mM DTT, 5 mM MnCl2, 10% glycerol; column calibrated with mass standards

Chain of His6-RecJ3 (H. volcanii) (D4GVJ5 entry or part of it): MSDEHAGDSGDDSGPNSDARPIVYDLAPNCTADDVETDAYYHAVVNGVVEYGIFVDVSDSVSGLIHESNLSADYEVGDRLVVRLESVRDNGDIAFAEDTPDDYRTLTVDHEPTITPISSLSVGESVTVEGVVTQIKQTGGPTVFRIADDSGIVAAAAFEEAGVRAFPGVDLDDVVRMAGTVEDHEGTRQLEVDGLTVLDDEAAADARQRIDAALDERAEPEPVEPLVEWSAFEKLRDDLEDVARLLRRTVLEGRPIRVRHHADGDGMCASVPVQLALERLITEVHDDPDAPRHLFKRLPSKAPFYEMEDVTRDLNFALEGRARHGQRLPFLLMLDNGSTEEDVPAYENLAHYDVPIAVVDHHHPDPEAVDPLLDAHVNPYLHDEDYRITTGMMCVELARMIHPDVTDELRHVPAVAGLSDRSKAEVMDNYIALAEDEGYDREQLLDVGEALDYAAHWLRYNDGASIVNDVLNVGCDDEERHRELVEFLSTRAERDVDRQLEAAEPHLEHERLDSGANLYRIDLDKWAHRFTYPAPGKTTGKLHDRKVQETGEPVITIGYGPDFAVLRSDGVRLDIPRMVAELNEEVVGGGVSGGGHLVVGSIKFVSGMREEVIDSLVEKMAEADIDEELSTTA

stoichiometry N (RecJ4 per RecJ3) (His6-RecJ3 (H. volcanii) [1]): 1 | stoichiometry N (RecJ4 per aRNase J) [2]: 2 | stoichiometry N (RecJ4 per RecJ3) (His6-RecJ3 (H. volcanii) [3]): 1
Molecule: RecJ4 (natural protein)

B1: aRNase J-StrepII (natural protein, H. volcanii, UniProt D4GW49 1-450, looked up)
chain: MEIEIATIGGYEEVGRQMTAVRAGDDVVVFDMGLNLSQVLIHDNVETEKMHSLDLIDMGAIPDDRVMSDLEGDVQAIVPTHGHLDHIGAISKLAHRYDAPVVATPFTIELVKQQIEGENKFNVNNDLVKMEAGETMSIGDSGNVELEFVHVTHSIIDAINPVVHTPEGAVVYGLDKRMDHSPVLEDPIDMKRFREIGREGNGVLAYIEDCTNAGRKGRTPSESVARRHLKDVMTSVEDYDGGIVATTFSSHISRVSSLVEFAKDIGRQPVLLGRSMEKYSGTAERLGFVDLPDDLGMYGHRKSVDRTFKRIMKEGKENYLPIVTGHQGEPRAMLTRMGRGETPYEIDDGDKVIFSARVIPEPTNEGQRYQSERLLRMQGARIYDEIHVSGHLREEGHYEMLQALQPQHVIPAHQNLKGFAPYVDLAESQGYALGRDLHVTRNGNMIQLVE
notes: archaeal RNase J of Haloferax volcanii, amplified with primers HVO_2724 NdeI and HVO_2724 KpnI; A homodimer when purified from the ΔrecJ3 mutant (SEC); in the RecJ3/4-aRNase J complex the stoichiometry is 2:2:1; also called aRNase J with a C-terminal StrepII tag; aRNase J homodimer; source: H. volcanii H26- or HS01-pJAM1406, HJ02-, HJ04- or HJ07-pJAM4252, in lysate; purified (Strep-Tactin, SEC); …
stoichiometry N [4]: 2
